Paper doi:10.1101/2025.11.18.689095 (bioRxiv, 2025)

B1: K118A: K118A mutation in hTom70 (protein)
chain: MNSLDRAQAAANKGNKYFKAGKYEQAIQCYTEAISLCPTEKNVDLSTFYQNRAAAFEQLQKWKEVAQDCTKAVELNPKYVKALFRRAKAHEKLDNKKECLEDVTAVCILEGFQNQQSMLLADKVLKLLGKEKAKEKYKNREPLMPSPQFIKSYFSSFTDDIISQPMLKGEKSDEDKDKEGEALEVKENSGYLKAKQYMEEENYDKIISECSKEIDAEGKYMAEALLLRATFYLLIGNANAAKPDLDKVISLKEANVKLRANALIKRGSMYMQQQQPLLSTQDFNMAADIDPQNADVYHHRGQLKILLDQVEEAVADFDECIRLRPESALAQAQKCFALYRQAYTGNNSSQIQAAMKGFEEVIKKFPRCAEGYALYAQALTDQQQFGKADEMYDKCIDLEPDNATTYVHKGLLQLQWKQDLDRGLELISKAIEIDNKCDFAYETMGTIEVQRGNMEKAIDMFNKAINLAKSEMEMAHLYSLCDAAHAQTEVAKKYGLKPPTL
B2: R192A: R192A mutation in Tom70 (protein)
chain: MNSLDRAQAAKNKGNKYFKAGKYEQAIQCYTEAISLCPTEKNVDLSTFYQNRAAAFEQLQKWKEVAQDCTKAVELNPKYVKALFARAKAHEKLDNKKECLEDVTAVCILEGFQNQQSMLLADKVLKLLGKEKAKEKYKNREPLMPSPQFIKSYFSSFTDDIISQPMLKGEKSDEDKDKEGEALEVKENSGYLKAKQYMEEENYDKIISECSKEIDAEGKYMAEALLLRATFYLLIGNANAAKPDLDKVISLKEANVKLRANALIKRGSMYMQQQQPLLSTQDFNMAADIDPQNADVYHHRGQLKILLDQVEEAVADFDECIRLRPESALAQAQKCFALYRQAYTGNNSSQIQAAMKGFEEVIKKFPRCAEGYALYAQALTDQQQFGKADEMYDKCIDLEPDNATTYVHKGLLQLQWKQDLDRGLELISKAIEIDNKCDFAYETMGTIEVQRGNMEKAIDMFNKAINLAKSEMEMAHLYSLCDAAHAQTEVAKKYGLKPPTL
B3: K188A: K188A mutation in Tom70 (protein)
chain: MNSLDRAQAAKNKGNKYFKAGKYEQAIQCYTEAISLCPTEKNVDLSTFYQNRAAAFEQLQKWKEVAQDCTKAVELNPKYVAALFRRAKAHEKLDNKKECLEDVTAVCILEGFQNQQSMLLADKVLKLLGKEKAKEKYKNREPLMPSPQFIKSYFSSFTDDIISQPMLKGEKSDEDKDKEGEALEVKENSGYLKAKQYMEEENYDKIISECSKEIDAEGKYMAEALLLRATFYLLIGNANAAKPDLDKVISLKEANVKLRANALIKRGSMYMQQQQPLLSTQDFNMAADIDPQNADVYHHRGQLKILLDQVEEAVADFDECIRLRPESALAQAQKCFALYRQAYTGNNSSQIQAAMKGFEEVIKKFPRCAEGYALYAQALTDQQQFGKADEMYDKCIDLEPDNATTYVHKGLLQLQWKQDLDRGLELISKAIEIDNKCDFAYETMGTIEVQRGNMEKAIDMFNKAINLAKSEMEMAHLYSLCDAAHAQTEVAKKYGLKPPTL
B4: N158A: N158A mutation in hTom70 (protein)
chain: MNSLDRAQAAKNKGNKYFKAGKYEQAIQCYTEAISLCPTEKNVDLSTFYQARAAAFEQLQKWKEVAQDCTKAVELNPKYVKALFRRAKAHEKLDNKKECLEDVTAVCILEGFQNQQSMLLADKVLKLLGKEKAKEKYKNREPLMPSPQFIKSYFSSFTDDIISQPMLKGEKSDEDKDKEGEALEVKENSGYLKAKQYMEEENYDKIISECSKEIDAEGKYMAEALLLRATFYLLIGNANAAKPDLDKVISLKEANVKLRANALIKRGSMYMQQQQPLLSTQDFNMAADIDPQNADVYHHRGQLKILLDQVEEAVADFDECIRLRPESALAQAQKCFALYRQAYTGNNSSQIQAAMKGFEEVIKKFPRCAEGYALYAQALTDQQQFGKADEMYDKCIDLEPDNATTYVHKGLLQLQWKQDLDRGLELISKAIEIDNKCDFAYETMGTIEVQRGNMEKAIDMFNKAINLAKSEMEMAHLYSLCDAAHAQTEVAKKYGLKPPTL

The molecules below were run on biotinylated full-length Hsp90 (assay: BLI, Tom70 mutants binding to biotinylated full-length Hsp90). Conditions: biotinylated full-length Hsp90 immobilized, Tom70 40 µM, Fig S7B.
Set-up: species or system human
Description: Biotinylated Hsp90 proteins were immobilized onto streptavidin biosensor probes, and experiments were conducted in buffer containing 20 mM sodium phosphate (pH 7), 150 mM NaCl, 1% BSA, 0.6 M sucrose, and 1 mM TCEP[68]. […] To combat heterogenous binding, dissociation curves were fit with a two-phase exponential curve. Due to the association rate (kon) being too rapid to quantify, kon values were indirectly estimated by combining koff values obtained from BLI with KD values determined by ITC ( kon=koffBLI/KDITC ). All data are corrected for non-specific binding. Error is given as the standard deviation of at least two measurements.
Supplementary Figure 7: (A) Interacting residues between Tom70 and Hsp90EEVD peptide. (B) BLI sensorgrams of biotinylated full-length Hsp90 assayed to Tom70 mutants. WT refers to “wild-type” Tom70. All Tom70 concentrations are at 40 µM. Dotted line demarcates the beginning of the dissociation phase. (C-D) ITC thermograms and isotherms for the interaction of Tom70 to an (C) amidated Hsp90EEVD peptide and a (D) Hsp90EQVD peptide. N.D. stands for “not-detected” due to the lack of sufficient heat generated.
(1 picture or pasted object on this page, not shown here)
In the case of B1, the “binding of Tom70 mutant to Hsp90” value is reported as “eliminated binding”.
B2 was tested, and the “binding of Tom70 mutant to Hsp90” value was “abrogated binding”.
In the case of B3, the “binding of Tom70 mutant to Hsp90” value is reported as “abrogated binding”.
B4 was tested, and the “binding of Tom70 mutant to Hsp90” value was “eliminated binding”.
